Assay results reported in US12006530B2, “Streptococcal proteases” (priority 2016, dated 2024).

Assays:
human IgG = experiment: IgG cleavage by IgdE, SDS-PAGE; type: biochemical; conditions: purified polyclonal IgG, reducing SDS-PAGE
Procedure: (§1) (A) rIgdEagalactiae was incubated with polyclonal IgG of six different species for 18 h at 37° C. and analyzed by SDS-PAGE under reducing conditions. Degradation products are indicated by asterisks (*). Images of different gels have been used to create the figure. (B) rIgdEagalactiae was incubated with human or bovine serum for 18 h in 37° C. and analyzed by SDS-PAGE under reducing conditions. Degradation products are indicated by asterisks (*). (C) Western Blot with crude extracts of rIgdEagalactiae incubated with human and porcine serum for 18 h in 37° C. Membrane was treated with antibodies against human and porcine polyclonal IgG respectively. Degradation products are indicated by asterisks (*). (D) rIgdEagalactiae was incubated with subclasses of human IgG as well as human IgA and IgM for 18 h in 37° C. and analyzed by SDS-PAGE under reducing conditions. Degradation products are indicated by asterisks (*). Images of different gels have been used to create the figure.
(§2) 0.5 mg/ml of porcine IgG (Sigma) in PBS or of other species (human, goat, cow, horse and mouse; all Sigma) were incubated with either crude extracts of induced E. coli carrying S. suis IgdE constructs mentioned above or 10 nM purified rIgdE for 16 h at 37° C. prior subjection to SDS-PAGE under either reducing or non-reducing conditions.
(§3) Samples for SDS-PAGE were prepared with either reducing or non-reducing sample buffer and heated to 95° C. for 5 min. 12% SDS-PAGE was either stained with Coomassie blue (Sigma), Coomassie Fluor™ Orange Protein Gel Stain (Invitrogen) or blotted to Hybond-P PVDF membrane (GE Healthcare) for western blot analyses. Membranes were blocked with 5% dry milk powder in 0.1% PBS-Tween, followed by incubation with horse-radish peroxidase conjugated antibodies. Goat anti-pig IgG-HRP (Thermo Scientific) and goat anti-porcine IgM-HRP (Thermo Scientific) was diluted 1:25′000 and goat anti-porcine IgA-HRP (Thermo Scientific) was diluted 1:12′500. Membranes were thoroughly washed with 0.1% PBS-Tween prior to development with Amersham ECL Select Western blotting detection reagent (GE Healthcare) according to manufactures instruction and pictured by LAS4000 imaging system (Fujifilm).

IgG = IgG degrading cysteine protease activity: specificity as summarised; type: biochemical; conditions: summary statement
Source text: Typically, polypeptides for use in accordance with the invention display immunoglobulin cysteine protease activity, and in particular IgG degrading cysteine protease activity. Preferably, the polypeptide cleaves IgG in the hinge region and more particularly in the hinge region of the heavy chain. Preferably, cleavage results in production of Fc and Fab fragments of IgG. Preferably the activity is specific for IgG. The IgG degrading cysteine protease activity may be determined by means of a suitable assay. For example, a test polypeptide may be incubated with IgG at a suitable temperature, such as 37° C. The starting materials and the reaction products may then be analysed by SDS PAGE to determine whether the desired IgG cleavage product is present. Typically this cleavage product is a 32 kDa fragment. Typically there is no further degradation of IgG after this first cleavage. The cleavage product may be subjected to N-terminal sequencing to verify that cleavage has occurred in the hinge region of IgG.
The IgG degrading cysteine protease activity of the polypeptides is generally IgG-specific in that the polypeptides may not degrade other classes of Ig, namely IgM, and IgA, when incubated with these immunoglobulins under conditions that permit cleavage of IgG.

porcine IgG = experiment: IgG cleavage by IgdE, SDS-PAGE; type: biochemical, pig; conditions: purified polyclonal IgG, reducing SDS-PAGE
Summary of the method: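 Porcine IgG (3.3 μM; 0.5 mg/ml), or IgG from other species, was incubated for 16 h at 37 °C with E. coli lysates expressing rIgdE constructs or with 10 nM purified rIgdE. Cleavage was judged on 12% SDS-PAGE under reducing or non-reducing conditions, by Coomassie staining or by western blot with anti-porcine IgG, IgM or IgA.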

mouse IgG = experiment: IgG cleavage by IgdE, SDS-PAGE; type: biochemical; conditions: purified polyclonal IgG, reducing SDS-PAGE
Procedure: as §2, §3

cow IgG = experiment: IgG cleavage by IgdE, SDS-PAGE; type: biochemical; conditions: purified polyclonal IgG, reducing SDS-PAGE
Procedure: as §2, §3

goat IgG = experiment: IgG cleavage by IgdE, SDS-PAGE; type: biochemical; conditions: purified polyclonal IgG, reducing SDS-PAGE
Procedure: as §2, §3

horse IgG = experiment: IgG cleavage by IgdE, SDS-PAGE; type: biochemical; conditions: purified polyclonal IgG, reducing SDS-PAGE
Procedure: as §2, §3

IgG in human serum = experiment: Ig cleavage in human serum, anti-IgG Western blot; type: biochemical
Procedure: as §1

human serum IgG1 = biological target: T1, human serum IgG1 (Homo sapiens, UniProt P01857); experiment: Degradation of human serum IgG1, non-reducing Western blot; type: biochemical; conditions: 18 h at 37° C.
T1 construct: Human serum and monoclonal human IgG1 were incubated in presence (+) or absence (−) of rIgdEagalactiae; from tissue; host or cells: human serum
T1 sequence (P01857 1-330 isoform P01857-1): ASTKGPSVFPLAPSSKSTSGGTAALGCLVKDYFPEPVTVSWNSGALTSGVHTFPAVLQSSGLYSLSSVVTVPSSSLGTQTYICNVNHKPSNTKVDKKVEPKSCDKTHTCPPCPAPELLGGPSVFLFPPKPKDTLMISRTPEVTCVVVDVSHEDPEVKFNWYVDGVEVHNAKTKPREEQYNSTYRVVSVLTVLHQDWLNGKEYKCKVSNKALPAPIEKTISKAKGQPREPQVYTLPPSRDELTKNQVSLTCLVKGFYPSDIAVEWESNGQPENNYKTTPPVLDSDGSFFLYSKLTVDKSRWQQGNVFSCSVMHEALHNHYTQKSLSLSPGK
Procedure: Human serum and monoclonal human IgG1 were incubated in presence (+) or absence (−) of rIgdEagalactiae for 18 h at 37° C. and analyzed by Western blot under non-reducing conditions with a human IgG-specific antibody.

monoclonal human IgG1 = experiment: Cleavage of human IgG subclasses, SDS-PAGE; type: biochemical; conditions: 18 h, 37° C., reducing SDS-PAGE
Procedure: as §1

monoclonal human IgG3 = monoclonal human IgG3 (Homo sapiens, UniProt P01860); experiment: Cleavage of human IgG subclasses, SDS-PAGE; type: biochemical; conditions: 18 h, 37° C., reducing SDS-PAGE
Sequence of monoclonal human IgG3 (P01860 1-377 isoform P01860-1): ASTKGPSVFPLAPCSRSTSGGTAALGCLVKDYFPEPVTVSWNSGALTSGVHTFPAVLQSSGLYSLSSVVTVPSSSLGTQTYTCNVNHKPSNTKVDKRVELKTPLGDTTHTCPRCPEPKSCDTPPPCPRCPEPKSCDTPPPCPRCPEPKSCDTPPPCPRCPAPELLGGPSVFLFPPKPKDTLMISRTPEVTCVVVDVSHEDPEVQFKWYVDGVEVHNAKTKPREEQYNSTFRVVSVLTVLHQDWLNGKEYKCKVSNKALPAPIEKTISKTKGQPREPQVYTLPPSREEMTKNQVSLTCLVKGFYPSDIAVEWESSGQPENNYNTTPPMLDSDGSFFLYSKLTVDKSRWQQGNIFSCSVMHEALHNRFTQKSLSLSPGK
Procedure: as §1

monoclonal human IgG4 = monoclonal human IgG4 (Homo sapiens, UniProt P01861); experiment: Cleavage of human IgG subclasses, SDS-PAGE; type: biochemical; conditions: 18 h, 37° C., reducing SDS-PAGE
Sequence of monoclonal human IgG4 (P01861 1-327 isoform P01861-1): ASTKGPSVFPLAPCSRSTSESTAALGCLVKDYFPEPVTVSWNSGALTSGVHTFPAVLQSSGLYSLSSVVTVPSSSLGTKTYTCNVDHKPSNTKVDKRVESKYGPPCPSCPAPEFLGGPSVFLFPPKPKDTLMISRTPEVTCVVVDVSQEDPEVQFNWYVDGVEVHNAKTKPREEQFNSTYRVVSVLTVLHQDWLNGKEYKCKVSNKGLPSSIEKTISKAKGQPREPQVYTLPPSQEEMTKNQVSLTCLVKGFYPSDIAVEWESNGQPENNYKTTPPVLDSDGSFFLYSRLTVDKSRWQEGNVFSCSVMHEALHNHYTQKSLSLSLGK
Procedure: as §1

monoclonal human IgG2 = experiment: Cleavage of human IgG subclasses, SDS-PAGE; type: biochemical; conditions: 18 h, 37° C., reducing SDS-PAGE
Procedure: as §1

rat IgG = experiment: IgG cleavage by IgdE, SDS-PAGE; type: biochemical; conditions: purified polyclonal IgG
equine IgG5 = experiment: Cleavage of recombinant equine IgG subtypes, SDS-PAGE; type: biochemical, horse; conditions: 0.6 μM, 16 h at 37° C., reducing SDS-PAGE
Procedure: (§4) 0.6 μM recombinant equine IgG subtypes or serum IgG were incubated for 16 h at 37° C. with (+) or without (−) the soluble fraction of E. coli cells expressing rIgdEequi. Reactions were analyzed by SDS-PAGE under reducing conditions. […] SDS-PAGE was either stained with Coomassie Fluor Orange Protein Gel Stain (A) or subjected to Western blot (B) analyses with Rabbit Anti-Horse IgG H&L (HRP) ab6921.

equine IgG2 = experiment: as above; type: biochemical, horse; conditions: 0.6 μM, 16 h at 37° C., reducing SDS-PAGE
Procedure: as §4

equine IgG1 = experiment: as above; type: biochemical, horse; conditions: 0.6 μM, 16 h at 37° C., reducing SDS-PAGE
Procedure: as §4

equine IgG7 = experiment: as above; type: biochemical, horse; conditions: 0.6 μM, 16 h at 37° C., reducing SDS-PAGE
Procedure: as §4

equine IgG3 = experiment: as above; type: biochemical, horse; conditions: 0.6 μM, 16 h at 37° C., reducing SDS-PAGE
Procedure: as §4

equine IgG4 = experiment: as above; type: biochemical, horse; conditions: 0.6 μM, 16 h at 37° C., reducing SDS-PAGE
Procedure: as §4

equine IgG6 = experiment: as above; type: biochemical, horse; conditions: 0.6 μM, 16 h at 37° C., reducing SDS-PAGE
Procedure: as §4

IgG in equine serum = experiment: Ig cleavage in equine serum, anti-IgG Western blot; type: biochemical, horse
rabbit IgG = experiment: IgG cleavage by IgdE, SDS-PAGE; type: biochemical; conditions: purified polyclonal IgG

B1: IgdEagalactiae: IgdE isolated from S. agalactiae strain CCUG4208, SEQ ID NO: 3 (protein, listed as Streptococcus agalactiae)
chain: NQNNIQETNLVEKNSEDKFIQELNRYKTEIPNFKGFNVWILGDKGYYKNLINLEEIKNIQATLKKERNEEYVFVKLNGKIAHDTTVFLMNKKHKLLKNIEEFKTITQKRLTERGKFPYDTVHSTFEIKDENFIMERLKSSGLSMGKPVDYMGVNGIPIYTKTLSIDNKFAFENNSKDSSYSSNINISEDKIKENDQKILDLIVKSGANNQNLTDEEKVIAFTKYIGEITNYDNEAYRARNVDTEYYRASDLFSVTERKLAMCVGYSVTAARAFNIMGIPSYVVSGKSPQGISHAAVRAYYNRSWHIIDITASTYWKNGNYKTTYSDFIKEYCIDGYDVYDPAKTNNRFKVKYMESNEAFENWIHNNGSKSMLFINESAALKDKKPKDDFVPVTEKEKNELIDKYKKLLSQIPENTQNPGEKNIRDYLKNEYEEILKKDNLFEHEHAEFKESLNLNESFYLQLKKEEKKPSDNLKKEEKPRENSVKERETPAENNDFVSVTEKNNLIDKYKELLSKIPENTQNPGEKNIRNYLEKEYEELLQKDKLFKHEYTEFTKSLNLNETFYSQLKEGEMKLSENPEKGETNTN
Human IgG
  cleavage of polyclonal human IgG (32 kDa degradation product): cleaved
IgG
  immunoglobulin specificity of the IgG degrading cysteine protease activity: specific for human IgG, and specifically human IgG1
Porcine IgG
  cleavage of polyclonal porcine IgG (32 kDa degradation product): No degradation product was observed
Mouse IgG
  cleavage of polyclonal mouse IgG: No degradation product was observed
Cow IgG
  cleavage of polyclonal cow IgG: No degradation product was observed
Goat IgG
  cleavage of polyclonal goat IgG: No degradation product was observed
Horse IgG
  cleavage of polyclonal horse IgG: No degradation product was observed
IgG in human serum
  cleavage of IgG in human serum: cleaved IgG in human serum
Human serum IgG1
  degradation of human serum IgG1: degrades human serum IgG1 completely to single cleaved IgG1
Monoclonal human IgG1
  cleavage of monoclonal human IgG1 kappa (32 kDa degradation product): cleaved
  cleavage of monoclonal human IgG1 lambda (32 kDa degradation product): cleaved
Monoclonal human IgG3
  cleavage of monoclonal human IgG3: No degradation product was observed
Monoclonal human IgG4
  cleavage of monoclonal human IgG4: No degradation product was observed
Monoclonal human IgG2
  cleavage of monoclonal human IgG2: No degradation product was observed

B2: IgdEequi: IgdE isolated from S. equi strain ssp zooepidemicus #1, SEQ ID NO: 7 (protein, listed as Streptococcus equi)
chain: MEAWKHGSMEAWKHGSMEAWKHGRTLCKGLLLGLACGAISMSLVVKSTIVVADDVRLSEQSTVILDNTVSNLISEVKDELAKNHQDALEIYILGEGSPKYSGVSPDRLGDYIKDYKPVRLNGKVIHGRAFFMMKKEDQLISTKEEYDRIIAERFSNLEKFDYPTIHYTFNAELKDKYPYLSLILKASGLSLSDSINLGSTLGINGVTIHTQHLRIDNQFAYRYNGEDYKQDSHITFDRFKKNDDKLKELIATSGANQEGLTDAQRVKAYVLYMANHVDYDWDATRYNPDYLIFCQASDLFALTERNKAMCIGFSTAAARGLNLLGIPSYVTYGKNRDGVAHATIRAFYDKKWRTLDVTGVGRGKYTEEHYDNLNTHDYKIFDLTKETNVDLDRGYMEIYKDFEDWILSHNTKELLFINQDANIRNKVAKDVFKYIQEAEKQSLIDKYNEFIIRTSALKAEFKTDRLKEIVGSLVSQAQEELENIKHIEVMTEDEKDQFEYTLRNLGVYYSQCESANQ
Rat IgG
  cleavage of polyclonal rat IgG: No degradation product was observed
Human IgG
  cleavage of polyclonal human IgG (32 kDa degradation product): No degradation product was observed
IgG
  immunoglobulin specificity of the IgG degrading cysteine protease activity: specific for equine IgG, and specifically equine IgG7
Porcine IgG
  cleavage of polyclonal porcine IgG (32 kDa degradation product): No degradation product was observed
Mouse IgG
  cleavage of polyclonal mouse IgG: No degradation product was observed
Cow IgG
  cleavage of polyclonal cow IgG: No degradation product was observed
Goat IgG
  cleavage of polyclonal goat IgG: No degradation product was observed
Horse IgG
  cleavage of polyclonal horse IgG: cleaved
Equine IgG5
  cleavage of recombinant equine IgG5: No degradation product was observed
Equine IgG2
  cleavage of recombinant equine IgG2: No degradation product was observed
Equine IgG1
  cleavage of recombinant equine IgG1: No degradation product was observed
Equine IgG7
  cleavage of recombinant equine IgG7 (32 kDa degradation product): cleaved
Equine IgG3
  cleavage of recombinant equine IgG3: No degradation product was observed
Equine IgG4
  cleavage of recombinant equine IgG4: No degradation product was observed
Equine IgG6
  cleavage of recombinant equine IgG6: No degradation product was observed
IgG in equine serum
  cleavage of IgG in equine serum: cleaved IgG in equine serum
Rabbit IgG
  cleavage of polyclonal rabbit IgG: No degradation product was observed
